Test results reported in IntAct's records for PubMed 24449766.

B1: E3 ubiquitin-protein ligase MARCHF6 (Homo sapiens), O60337 (parent)
chain: MDTAEEDICRVCRSEGTPEKPLYHPCVCTGSIKFIHQECLVQWLKHSRKEYCELCKHRFAFTPIYSPDMPSRLPIQDIFAGLVTSIGTAIRYWFHYTLVAFAWLGVVPLTACRIYKCLFTGSVSSLLTLPLDMLSTENLLADCLQGCFVVTCTLCAFISLVWLREQIVHGGAPIWLEHAAPPFNAAGHHQNEAPAGGNGAENVAADQPANPPAENAVVGENPDAQDDQAEEEEEDNEEEDDAGVEDAADANNGAQDDMNWNALEWDRAAEELTWERMLGLDGSLVFLEHVFWVVSLNTLFILVFAFCPYHIGHFSLVGLGFEEHVQASHFEGLITTIVGYILLAITLIICHGLATLVKFHRSRRLLGVCYIVVKVSLLVVVEIGVFPLICGWWLDICSLEMFDATLKDRELSFQSAPGTTMFLHWLVGMVYVFYFASFILLLREVLRPGVLWFLRNLNDPDFNPVQEMIHLPIYRHLRRFILSVIVFGSIVLLMLWLPIRIIKSVLPNFLPYNVMLYSDAPVSELSLELLLLQVVLPALLEQGHTRQWLKGLVRAWTVTAGYLLDLHSYLLGDQEENENSANQQVNNNQHARNNNAIPVVGEGLHAAHQAILQQGGPVGFQPYRRPLNFPLRIFLLIVFMCITLLIASLICLTLPVFAGRWLMSFWTGTAKIHELYTAACGLYVCWLTIRAVTVMVAWMPQGRRVIFQKVKEWSLMIMKTLIVAVLLAGVVPLLLGLLFELVIVAPLRVPLDQTPLFYPWQDWALGVLHAKIIAAITLMGPQWWLKTVIEQVYANGIRNIDLHYIVRKLAAPVISVLLLSLCVPYVIASGVVPLLGVTAEMQNLVHRRIYPFLLMVVVLMAILSFQVRQFKRLYEHIKNDKYLVGQRLVNYERKSGKQGSSPPPPQSSQE

Variants of: B1
Conditions: with erg1_human SQLE

| effect of a mutation on the interaction | Variant |
| --- | --- |
| increasing interaction | C9A |
